Measured values reported in US20180112003A1 (UNIVERSITY OF SOUTHERN CALIFORNIA, published 2018).
Values belong to the binder of their own block, whether it stands above or below them.

Tests used:
[1] = biological target: T1, human luteinizing hormone receptor (LHR) (human, UniProt P22888 27-699); assay: flow cytometry screen of LHR-Fc ELISA positive hybridomas on ES-2 ovarian carcinoma cells; ratio of antibody MFI to isotype MFI
T1 construct: Endogenous LHR on human ovarian carcinoma cell lines (ES-2, SKOV3); also called LHR on ES-2 human ovarian carcinoma cells; LHR on SKOV3 cells
Excerpt: (§1) Antibodies against the […] extracellular hormone binding domain of LHR were generated by repeated immunization of 4 week-old-BALB/c and NIH Swiss mice with genetically engineered LHR-Fc. As shown below in FIG. 3, the leader sequence and first part of the human LHR G-protein was used to generate the LHR-Fc used in the immunization and screening methods to generate and identify high binding antibodies. […] A typical flow cytometry screen of hybridomas positive by initial ELISA screen using LHR-Fc coated plates is shown below in FIG. 4 using the ES-2 ovarian carcinoma cell line. […] These few candidate hybridomas were then subcloned by dilution in 96 well plates and expanded for freezing in vials. After further screening by flow cytometry, specific subclones were selected for large scale production using 2L vessels (GRrex, 100L, Wolfson). Filtered supernatants were then subjected to antibody purification using tandon protein A or G and ion exchange chromatography methods performed routinely in the laboratory. Once purified, five antibody subclones designated 8B7-3, 5F4-21, 5B1-1, 2H11-37, and 138-2 were sequenced to facilitate the engineering of single chain genes used for the construction of LHR CARs described below.

[2] = biological target: T1, human luteinizing hormone receptor (LHR); assay: flow cytometry on ES-2 human ovarian carcinoma cells; ratio of antibody MFI to isotype MFI
Excerpt: as §1

T1 sequence (P22888 27-699 limits assumed): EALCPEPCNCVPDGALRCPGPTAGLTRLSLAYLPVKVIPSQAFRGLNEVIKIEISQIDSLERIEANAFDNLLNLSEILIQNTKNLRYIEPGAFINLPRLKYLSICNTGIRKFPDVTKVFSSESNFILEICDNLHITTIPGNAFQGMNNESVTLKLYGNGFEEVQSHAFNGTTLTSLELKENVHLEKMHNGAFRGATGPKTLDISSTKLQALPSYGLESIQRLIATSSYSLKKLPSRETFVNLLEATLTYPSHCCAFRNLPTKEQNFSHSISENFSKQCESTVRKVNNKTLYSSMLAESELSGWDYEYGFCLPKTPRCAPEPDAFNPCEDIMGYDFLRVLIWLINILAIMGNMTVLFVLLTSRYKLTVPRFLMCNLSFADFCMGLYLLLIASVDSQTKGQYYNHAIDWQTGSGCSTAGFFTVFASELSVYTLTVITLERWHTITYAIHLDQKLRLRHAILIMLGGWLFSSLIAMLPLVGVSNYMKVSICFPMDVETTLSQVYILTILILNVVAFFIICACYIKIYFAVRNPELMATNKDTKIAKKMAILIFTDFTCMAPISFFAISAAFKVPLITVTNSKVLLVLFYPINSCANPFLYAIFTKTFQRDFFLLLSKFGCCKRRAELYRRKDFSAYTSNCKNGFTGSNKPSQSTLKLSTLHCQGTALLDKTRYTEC

binding result [1]: binds
B1: LHR Antibody #8B7-3 (antibody, V domains shown)
VH: QVKLQQSGPELVKPGASVKISCKASGYSFTGYYMHWVKQSHGNILDWIGYIYPYNGVSSYNQKFKGKATLTVDKSSSTAYMELRSLTSEDSAVYYCARERGLYQLRAMDYWGQGTSVTVSS
VL: DIVLTQTPATLSVTPGDSVSLSCRASQSISNNLHWYQQKSHESPRLLIKNASQSISGIPSKFSGSGSGTDFTLRINSVETEDFGMYFCQQSNSWPYTFGSGTKLEIK
notes: Mouse monoclonal antibody from a hybridoma; also called hybridoma 8B7

binding result [2]: binds
B2: LHR Antibody #5F4-21 (antibody, V domains shown)
VH: EVQLQESGPDLVKPSQSLSLTCTVTGYSITSGYGWHWIRQFPGNKLEWMGYIHYSGSTTYNPSLKSRISISRDTSKNQFFLQLNSVTTEDTATYYCARSLRYWGQGTTLTVSS
VL: DIVMTQTPAIMSASPGQKVTITCSASSSVNYMHWYQQKLGSSPKLWIYDTSKLAPGVPARFSGSGSGTSYSLTISSMEAEDAASYFCHQWSSYPYTFGSGTKLEIK
notes: Mouse monoclonal antibody from a hybridoma subclone
